In publication PMC9352680, “A comprehensive thermodynamic model for RNA binding by the Saccharomyces cerevisiae Pumilio protein PUF4”:

T1: PUF4 RNA-binding domain (Saccharomyces cerevisiae, UniProt P25339 537-888)
T1 sequence: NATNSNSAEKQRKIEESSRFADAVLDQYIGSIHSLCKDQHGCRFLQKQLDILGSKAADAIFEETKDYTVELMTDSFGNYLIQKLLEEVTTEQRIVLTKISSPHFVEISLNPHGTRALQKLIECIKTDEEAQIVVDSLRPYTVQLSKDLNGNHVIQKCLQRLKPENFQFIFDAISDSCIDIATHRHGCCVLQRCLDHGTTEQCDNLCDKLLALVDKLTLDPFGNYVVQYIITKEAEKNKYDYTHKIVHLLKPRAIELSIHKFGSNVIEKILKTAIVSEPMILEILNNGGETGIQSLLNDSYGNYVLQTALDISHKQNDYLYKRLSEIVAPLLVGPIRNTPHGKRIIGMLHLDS


The binders below were run against T1, PUF4 RNA-binding domain (assay: Mg; RNA-MaP; 20 mM Na-HEPES pH 7.4, 30 mM KOAc, 0.75 mM MgCl2, 0.1% Tween-20, 5% glycerol, 0.1 mg/mL BSA, 2 mM DTT; 25 C; 0.0125-409.6 nM protein). Settings: tags: N-His6-TEV cleaved; C-SNAP kept, Cy3B-labelled; label: tethered on chip by stalled RNA polymerase.

| Binder | Kd [nM] |
| --- | --- |
| UCUCUUUUUAUAUAUUAAGUCUCUU (ssRNA) [Id_ii_S1_P4E.3_K4.2_C4.2_[C-2T]_H4.2_A4.1_F4.1_T4.2_[G10A]_[T11G]] | 485 |
| UCUCUUGCUAUAUAUUAAAUCUCUU (ssRNA) [Id_ii_S1_P4E.3_K4.2_C4.2_[C-2G]_[T-1C]_H4.2_A4.1_F4.1_T4.2_[G10A]_[T11A]] | 126 |
| UCUCUUUAUAUAUAUUAAAUCUCUU (ssRNA) [Id_ii_S1_P4E.3_K4.2_C4.2_[C-2T]_[T-1A]_H4.2_A4.1_F4.1_T4.2_[G10A]_[T11A]] | 38.1 |
| UCUCUUUCUAUAUAUUAAAUCUCUU (ssRNA) [Id_ii_S1_P4E.3_K4.2_C4.2_[C-2T]_[T-1C]_H4.2_A4.1_F4.1_T4.2_[G10A]_[T11A]] | 61.2 |
| UCUCUUUUUAUAUAUUAUAUCUCUU (ssRNA) [Id_ii_S1_P4E.3_K4.2_C4.2_[C-2T]_H4.2_A4.1_F4.1_T4.2_[G10T]_[T11A]] | 22.2 |
| UCUCUUUGUAUAUAUUAUUUCUCUU (ssRNA) [Id_ii_S1_P4E.3_K4.2_C4.2_[C-2T]_[T-1G]_H4.2_A4.1_F4.1_T4.2_[G10T]] | 4.46 |
| UCUCUUUAUAUAUAUUAGCUCUCUU (ssRNA) [Id_ii_S1_P4E.3_K4.2_C4.2_[C-2T]_[T-1A]_H4.2_A4.1_F4.1_T4.2_[T11C]] | 12.7 |
| UCUCUUGUUAUAUAUUAAAUCUCUU (ssRNA) [Id_ii_S1_P4E.3_K4.2_C4.2_[C-2G]_H4.2_A4.1_F4.1_T4.2_[G10A]_[T11A]] | 26.8 |
| UCUCUUGUUAUAUAUUACCUCUCUU (ssRNA) [Id_ii_S1_P4E.3_K4.2_C4.2_[C-2G]_H4.2_A4.1_F4.1_T4.2_[G10C]_[T11C]] | 13 |
| UCUCUUUCUAUAUAUUAUCUCUCUU (ssRNA) [Id_ii_S1_P4E.3_K4.2_C4.2_[C-2T]_[T-1C]_H4.2_A4.1_F4.1_T4.2_[G10T]_[T11C]] | 17.2 |
| UCUCUUUGUAUAUAUUAAUUCUCUU (ssRNA) [Id_ii_S1_P4E.3_K4.2_C4.2_[C-2T]_[T-1G]_H4.2_A4.1_F4.1_T4.2_[G10A]] | 4.75 |
| UCUCUUUUUAUAUAUUACUUCUCUU (ssRNA) [Id_ii_S1_P4E.3_K4.2_C4.2_[C-2T]_H4.2_A4.1_F4.1_T4.2_[G10C]] | 21 |
| UCUCUUUCUAUAUAUUACGUCUCUU (ssRNA) [Id_ii_S1_P4E.3_K4.2_C4.2_[C-2T]_[T-1C]_H4.2_A4.1_F4.1_T4.2_[G10C]_[T11G]] | 30.7 |
| UCUCUUUGUAUAUAUUAUCUCUCUU (ssRNA) [Id_ii_S1_P4E.3_K4.2_C4.2_[C-2T]_[T-1G]_H4.2_A4.1_F4.1_T4.2_[G10T]_[T11C]] | 4.63 |
| UCUCUUUGUCAAUUAUCUCUU (ssRNA) [Ib_S1_P4E.1_K4.1_C4.1_H4.1_[A4C]_A4.1_[T5A]_F4.1_T4.1] | 134 |
| UCUCUUGUUAUAUAUUAAUUCUCUU (ssRNA) [Id_ii_S1_P4E.3_K4.2_C4.2_[C-2G]_H4.2_A4.1_F4.1_T4.2_[G10A]] | 21 |

| Binder | Kd [nM] |
| --- | --- |
| UCUCUUUUUAUAUAUUAUCUCUCUU (ssRNA) [Id_ii_S1_P4E.3_K4.2_C4.2_[C-2T]_H4.2_A4.1_F4.1_T4.2_[G10T]_[T11C]] | 19.8 |
| UCUCUUGCUAUAUAUUAUCUCUCUU (ssRNA) [Id_ii_S1_P4E.3_K4.2_C4.2_[C-2G]_[T-1C]_H4.2_A4.1_F4.1_T4.2_[G10T]_[T11C]] | 38.5 |
| UCUCUUUUUAUAUAUUAAAUCUCUU (ssRNA) [Id_ii_S1_P4E.3_K4.2_C4.2_[C-2T]_H4.2_A4.1_F4.1_T4.2_[G10A]_[T11A]] | 55.1 |
| UCUCUUUCUAUAUAUUACUUCUCUU (ssRNA) [Id_ii_S1_P4E.3_K4.2_C4.2_[C-2T]_[T-1C]_H4.2_A4.1_F4.1_T4.2_[G10C]] | 23.8 |
| UCUCUUUUUAUAUAUUACCUCUCUU (ssRNA) [Id_ii_S1_P4E.3_K4.2_C4.2_[C-2T]_H4.2_A4.1_F4.1_T4.2_[G10C]_[T11C]] | 26.2 |
| UCUCUUUAUAUAUAUUAUCUCUCUU (ssRNA) [Id_ii_S1_P4E.3_K4.2_C4.2_[C-2T]_[T-1A]_H4.2_A4.1_F4.1_T4.2_[G10T]_[T11C]] | 24.5 |
| UCUCUUUGUAUUAGUAUCUCUU (ssRNA) [Ia_S1_P5E.1_K5.1_C5.1_H5.1_A5.1_F5.1_[T8G]_T5.1] | 18.2 |
| UCUCUUGCUAUAUAUUAACUCUCUU (ssRNA) [Id_ii_S1_P4E.3_K4.2_C4.2_[C-2G]_[T-1C]_H4.2_A4.1_F4.1_T4.2_[G10A]_[T11C]] | 55 |
| UCUCUUUUUAUAUAUUAGCUCUCUU (ssRNA) [Id_ii_S1_P4E.3_K4.2_C4.2_[C-2T]_H4.2_A4.1_F4.1_T4.2_[T11C]] | 10.3 |
| UCUCUUUGUAUAUAUUAACUCUCUU (ssRNA) [Id_ii_S1_P4E.3_K4.2_C4.2_[C-2T]_[T-1G]_H4.2_A4.1_F4.1_T4.2_[G10A]_[T11C]] | 2.38 |
| UCUCUUUGUGUUUUAUCUCUU (ssRNA) [Ib_S1_P4E.1_K4.1_C4.1_H4.1_[A4G]_A4.1_[A6T]_F4.1_T4.1] | 13.1 |
| UCUCUUGUUAUAUAUUAUUUCUCUU (ssRNA) [Id_ii_S1_P4E.3_K4.2_C4.2_[C-2G]_H4.2_A4.1_F4.1_T4.2_[G10T]] | 22.3 |
| UCUCUUUCUAUAUAUUAUUUCUCUU (ssRNA) [Id_ii_S1_P4E.3_K4.2_C4.2_[C-2T]_[T-1C]_H4.2_A4.1_F4.1_T4.2_[G10T]] | 21.6 |
| UCUCUUGCUAUAUAUUAAUUCUCUU (ssRNA) [Id_ii_S1_P4E.3_K4.2_C4.2_[C-2G]_[T-1C]_H4.2_A4.1_F4.1_T4.2_[G10A]] | 70.2 |
| UCUCUUUGUAUAUAUUAGGUCUCUU (ssRNA) [Id_ii_S1_P4E.3_K4.2_C4.2_[C-2T]_[T-1G]_H4.2_A4.1_F4.1_T4.2_[T11G]] | 7.71 |
